The text below walks through data of the nanobody polyreactivity screen of Harvey et al. (2022).

The data set can be described thus: yeast display, Sf9 membrane polyspecificity reagent, FACS + sequencing; frameworks hold sequencing errors. A digest of the protocol:
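After 36–48 hours of galactose induction, yeast (Saccharomyces cerevisiae BJ5465) displaying a synthetic nanobody library were stained at 4 °C for 1 hour with 10% biotinylated, detergent-solubilized Sf9 membrane reagent. Streptavidin microbeads enriched the stained cells before FACS sorting into low and high (top ~1%) gates on anti-HA and streptavidin fluorescence. Each clone's polyreactivity label reflects its gate of origin.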
As for “QVQLVESGGGLVQAGGSLRLSCAASGRIFRGNAMGWYRQAPGKERELVAAISNSGGRTYYADSVKGRFTISRDNAKNTVYVQMTSLKPEDTAVYYCNAVTYSRRYAYYYWGQGTQVTVSS”, the “polyreactivity (PSR sort gate)” value is “high polyreactivity”.
For “QVQLVESGGGLVQAGGSLRLSCAASGRIFRGNTMGWYRQAPGKERELVAAITRGGSTSYADSVKGRFTISRDNAKNTVYLQMNSLKPEDTAVYYCATRTHGEGTRRDSWGQGTQVTVSS” the value was “low polyreactivity”.
Next, “QVQLVESGGGLVQAGGSLRLSCAASGRIFRGSAMGWYRQAPGKERELVATINASGGTTYYADSVKGRFTISRDNAKNTVYLQMNSLKPEDTAVYYCNARFRRFFSGYGYWGQGTQVTVSS”: “high polyreactivity”; “QVQLVESGGGLVQAGGSLRLSCAASGRIFRGYAMGSYRQETGKETELVAAISRSGGSTYYADSVKGRFTISRDNAKNTVYLQMNILKPEDTAVYYCNTKYVRYYRRYDSWGQGTQVTVSS”: “high polyreactivity”.
As to “QVQLVESGGGLVQAGGSLRLSCAASGRIFRGYAMGWYRQAPGKERELVAAINSGGDTYYADSVKGRFTISRDNAKNTVYLQMNSLKPEDTAVYYCAAAWWDYGNGKYDYWGQGTQVTVSS”, the “polyreactivity (PSR sort gate)” value is recorded as “low polyreactivity”.
With “QVQLVESGGGLVQAGGSLRLSCAASGRIFRGYAMGWYRQAPGKERELVAAISSGVSTNYADSVKGRFTISRDNAKNTVYLQKNSLKPVDTAVYYCAAYFYSPYGTAGKYRRRYNYWGQGTQVTVSS”, the “polyreactivity (PSR sort gate)” value was “high polyreactivity”.
Take “QVQLVESGGGLVQAGGSLRLSCAASGRIFRGYAMGWYRQAPGKERELVATISAIGGSTYADSVKGRFTISRDNAKNTVYLQRNSLKPEDTAVYYCNVRKVYRYQYRFEYWGQGTQVTVSS”: the “polyreactivity (PSR sort gate)” value is given as “high polyreactivity”.
As for “QVQLVESGGGLVQAGGSLRLSCAASGRIFRGYAMGWYRQAPWKERELVAAISRSGGSTYYADSVKGRFTISRDNAKNTVYLQMNSLKPVDTAVYYCAAYTYSAGGYWGQGSQVTVSS”, the “polyreactivity (PSR sort gate)” value is listed as “high polyreactivity”.
As to “QVQLVESGGGLVQAGGSLRLSCAASGRIFRGYAMGWYRQPPGTERELVAAITKRGGSTYYADSVKGRFTISRDNEKNTVSLQMNSLKPEDTAVYYCAAYLPGWELREYGYWGQGTQVTVSS”, the “polyreactivity (PSR sort gate)” value is “high polyreactivity”.
Take “QVQLVESGGGLVQAGGSLRLSCAASGRIFRGYARGWYRQAPGKEREFVAAITKNGGSTYYADSVKGRFTISRDNAKNTVYLQMNSLKPEDTAVYYCAVRAWDPYTGKSDYWGQGTQVTVSS”: the “polyreactivity (PSR sort gate)” value is recorded as “low polyreactivity”.
For “QVQLVESGGGLVQAGGSLRLSCAASGRIFRGYTMGWYRQAPGKERELVAAIRSGSRTNYADSVKGRFTISRDNAKNTVYLQMNSLKPEDTAVYYCAADSGYGRPYYYWGQGTQVTVSS” the value was “high polyreactivity”.
For “QVQLVESGGGLVQAGGSLRLSCAASGRIFRHYAMGWYRQAPGKVRELVAAIRWSGGSTYYADSVKGRFTISRDNAKNTVYLQMNSLKPADTAVYYCATRDAVGHRPSGPYQLYDYWGQGTQVTVSS” the value was “low polyreactivity”.
“QVQLVESGGGLVQAGGSLRLSCAASGRIFRINAMGWYRQAPGKERELVASITSRAGSTYYADSVKGRFTISRDNAKNTVYLQMNSLKPEDTAVYYCAARSVYTYYRLDYWGQGTQVTVSS”: the “polyreactivity (PSR sort gate)” value is on record as “high polyreactivity”.
Consider “QVQLVESGGGLVQAGGSLRLSCAASGRIFRIYGMGWYRQAPGKERELVADISIGGRTTYADSVKGRFTISRDNAKNTVYLQMNSLKPEDTAVYYCKTPYWYRIGQRLAWYDYWGQGTQVTVSS”, for which the “polyreactivity (PSR sort gate)” value is reported as “low polyreactivity”.
On to “QVQLVESGGGLVQAGGSLRLSCAASGRIFRKYAMGWYRQAPGKERELVAVINDRGGSTYYADSVKGRFTISRDNAKNTVYLQMNSLKPEDTAVYYCNATGPKKDTARYDYWGQGTQVTVSS”, for which the “polyreactivity (PSR sort gate)” value is “low polyreactivity”.
Next, “QVQLVESGGGLVQAGGSLRLSCAASGRIFRKYGMGWYRPAPGKERELVAAITGGGSTYYADSVKGRFTISRDNAKNTVYVQMNSLKPEDTAVYYCARGGYRWYPYVYVPSPFDYWGQGTQVTVSS”: “high polyreactivity”.
As to “QVQLVESGGGLVQAGGSLRLSCAASGRIFRLYAMGWYRQAPGKERELVAAISKSGGSTYYADSVKGRFTISRDNAKNTVYLQMNSLKPEDTAVYYCAADYRTHGGYEGTFDYWGQGTQVTVSS”, the “polyreactivity (PSR sort gate)” value is listed as “low polyreactivity”.
For “QVQLVESGGGLVQAGGSLRLSCAASGRIFRLYAMGWYRQAPGKERELVATITSGGTYYADSVKGRFTISRDNAKNTVYLQMNSLKPEDTAVYYFAAVVYPGYVGSQEYDYWGQGTQVTVSS” the value was “low polyreactivity”; for “QVQLVESGGGLVQAGGSLRLSCAASGRIFRNNAMGWYRQATGKERELVATISSRGGSTYYADSVKGRFTISSDNAKNNVYLQMNSLKPEDTAVYYCNKRWLHWAGYDYWGQGTQVTVSS”, “high polyreactivity”; for “QVQLVESGGGLVQAGGSLRLSCAASGRIFRPYAMGWYRQAPGKERELVASITRGGSTDYADSVKGRFTISRDNAKNTVYLQMNSLKPEDTAVYYCNKVWRFGYYGSYYWGQGTQVTVSS”, “high polyreactivity”.
On to “QVQLVESGGGLVQAGGSLRLSCAASGRIFRPYVMGWYRQAPGKERELVAAISYRGSSTYYADSVKGRFTISRDNAKNTVYLQMNSLKPEDTAVYYCAAYPRVYWTKEYDYWGQGTQVTVSS”, for which the “polyreactivity (PSR sort gate)” value is given as “high polyreactivity”.
For “QVQLVESGGGLVQAGGSLRLSCAASGRIFRQYAMGLYRQAPGKERELVAAISRRGTSTYYADSVKGRFTISRDNAKNTVYLQMNSLKPEDTAVYYCAAGGVYSIYRTSRVGYDYWGQGTQVTVSS” the value was “high polyreactivity”; for “QVQLVESGGGLVQAGGSLRLSCAASGRIFRRNAMGWYRQAPGKERELVASITRGGRTSYADSVKGRFTISRDNAKNTVYLQMNSLKPEDTAVYYCNARSYQSARFRGGYWGQGTQVTVSS”, “high polyreactivity”.
For the sequence “QVQLVESGGGLVQAGGSLRLSCAASGRIFRRSALGWSRQAPGKEREFVAAISSGGSTYYADSVKGRFTISRDNAKKYRLFTDEQPETGRYRGLLLRCVRYDVNLYDYWGHGTQVTVSS”, the “polyreactivity (PSR sort gate)” value is “low polyreactivity”.
For “QVQLVESGGGLVQAGGSLRLSCAASGRIFRRYAMGWYRQAHGKERELVAAITSGGRTYYADSVKGRFTISRDNAKNTVYLQMNSLKPEDTAVYYCAAKWTVGELDYWGQGTQVTVSS” the value was “high polyreactivity”; for “QVQLVESGGGLVQAGGSLRLSCAASGRIFRRYAMGWYRQAPGKEREFVAAITKSGGSTYYADSVKGRFTISRDNAKNTVYLQMNSLKPEDTAVYDCNAYVIRALGYGGYDYWGQGTQVTVSS”, “high polyreactivity”.
For “QVQLVESGGGLVQAGGSLRLSCAASGRIFRRYAMGWYRQAPGKEREFVAAITWSGSSTYYADSVKGRFTISRDNAKNTVYLQMNSLKPEDTAVYYCAARHYAVRRSRYPGKLGYYWGQGTQVTVSS”, the “polyreactivity (PSR sort gate)” value is reported as “high polyreactivity”.
For “QVQLVESGGGLVQAGGSLRLSCAASGRIFRRYASGWYRQAPGKEMELDADITYGVDSTYYADSVKGRFTISRDNAKNTVYLQMNSLKPEDTAVYYCIADRTEDMLYRFVGVTYGYWGQGTQVTVSS” the value was “high polyreactivity”; for “QVQLVESGGGLVQAGGSLRLSCAASGRIFRRYTMGWYRQAPGKERELVAAISSGGSTYYADSVKGRFTISRDNAKNTVYLQMNSLKPEDTAVYYCNADSRSQPYYPEFDYWGQGTQVTVSS”, “low polyreactivity”.
For “QVQLVESGGGLVQAGGSLRLSCAASGRIFRRYTMGWYRQAPGKERELVAAISSGGTTYYADSVKGRFTISRDNAKNTVYLQMNSLKPEDTAVYYCAAPWRSSIPHYEYWGQGTQVTVSS” the value was “high polyreactivity”; for “QVQLVESGGGLVQAGGSLRLSCAASGRIFRRYVMGWYRQAPGKERELVARIRIRDSNTYYADSVKGRFTISRDNAKNTVYLQMNSLKPEDTAVYYCNADTWADRSTYDYWGQGTQVTVSS”, “low polyreactivity”.
With “QVQLVESGGGLVQAGGSLRLSCAASGRIFRSNGMGWYRQAPGKERELVAAITYRGGNTYYADSVKGRFTISRDNAKNTVYFQMNSLKPEDTAVYYCANQGVRRHYGYDYWGQGTQVTVSS”, the “polyreactivity (PSR sort gate)” value is recorded as “high polyreactivity”.
With “QVQLVESGGGLVQAGGSLRLSCAASGRIFRTKAMGWYRLAPGKERELVAAITFSGGGTYYADSVKGRFTISRDNAKNTVYLQMNSLKPEDTAVYYCATDWYYEYYYWGQGTQVTVSS”, the “polyreactivity (PSR sort gate)” value was “low polyreactivity”.
As for “QVQLVESGGGLVQAGGSLRLSCAASGRIFRTNAMGWYRQAHGKEWELVAAITRGGTTNYADSVKGRFTISRDNAKNTVYLQMNSLKPEDTAVYYCAVDQGYVVRLAWIYGYWGQGTQVTVSS”, the “polyreactivity (PSR sort gate)” value is recorded as “low polyreactivity”.
In the case of “QVQLVESGGGLVQAGGSLRLSCAASGRIFRTYAMGWYRQAPGKERELVDAISYSGGSTFYADSVKRRFTISRDNAKNTVYLQMNSLKPEYTAVYYCAADSRAKRYYWGQGTQVTVSS”, the “polyreactivity (PSR sort gate)” value was “high polyreactivity”.
For “QVQLVESGGGLVQAGGSLRLSCAASGRIFRTYTMGWYRQAPGKERELVAAISRSGASTYYADSVKGRFTISRDNAKNTVYLQMNSLKPEDTAVYYCAKLILSTALVSRPGVDYWGQGTQVTVSS” the value was “high polyreactivity”; for “QVQLVESGGGLVQAGGSLRLSCAASGRIFRVNALGWYRQATRKERELVAGITQGDGSTYYADSVKGRFTISRDNAKNTVYLQMNSLKPEDTAVYYCAAEGFYTTGSPYSGGLDYWGQGTQVTVSS”, “low polyreactivity”.
For “QVQLVESGGGLVQAGGSLRLSCAASGRIFRVNAMGWYRQAPGKERELVAAINFSGTSTYYADSVKGRFTISRDNAKNTVYLQMNSLKPEDTAVYYCNALTTSNSGRFYYWGQGTQVTVSS”, the “polyreactivity (PSR sort gate)” value is on record as “low polyreactivity”.
As to “QVQLVESGGGLVQAGGSLRLSCAASGRIFRVNAMGWYRQAPGKERELVATITGSGGSTYYADSVKGRFTISRDNAKNTVYLQMNSLKPEDTAVYYCAAVSYWPTDRYYSWGQGTQVTVSS”, the “polyreactivity (PSR sort gate)” value was “low polyreactivity”.
For “QVQLVESGGGLVQAGGSLRLSCAASGRIFRVYAMGWYRQAPGKERELVAVISARGGNTYYADSVKGRFTISRDNAKNTVYLQMNSMKPEDTAVYYCAARGRMDYWGQGTQVTVSS” the value was “high polyreactivity”.
Next, “QVQLVESGGGLVQAGGSLRLSCAASGRIFRWNAMGWYRQAPGKERELVAAISRSGGSTYYADSVKRRFTISRDNAKNTVYLQMNSLKPEDTAVYYCNTRFSTFTAPGYYYWGQGTQVTVSS”: “high polyreactivity”.
